From patent US20240360203A1 come the findings set out here.

For test [1], the target named is T1, SARS-CoV-2 spike S2 peptide 1143-1162, biotinylated (SARS-CoV-2). As to the kind of experiment: SPR, Fab over captured biotin-peptide, 25 C. (In general: Surface plasmon resonance follows binding to a sensor surface in real time, without labels.)
Test [2] concerns the target T2, SARS-CoV-2 spike S2 peptide 1149-1167, biotinylated (SARS-CoV-2). The test can be described thus: SPR, Fab over captured biotin-peptide, 25 C.
In test [3] the target is T2, SARS-CoV-2 spike S2 peptide 1149-1167, …. As to the kind of experiment: SPR, Fab over captured biotin-peptide, 25 C. This is another data set of the same source.
The target of test [4] is HIV-1 Env peptide, biotinylated (negative control) (HIV-1). As to the kind of experiment: DELFIA on captured biotin-peptide. The arrangement: unit not given beside the values.
In test [5] the target is T2, SARS-CoV-2 spike S2 peptide 1149-1167, …. As to the kind of experiment: DELFIA on captured biotin-peptide. The arrangement: unit not given beside the values.
The target of test [6] is T1, SARS-CoV-2 spike S2 peptide 1143-1162, …. As to the kind of experiment: DELFIA on captured biotin-peptide. The arrangement: unit not given beside the values.

Where two headings read alike, the source gives them in different places.

B1: AB-1 Fab (Fab, V domains shown)
VH: EVQLVESGAEVKKPGESLKISCKGSGYTFTRYWIGWVRQMPGKGLEWMGIIYPGDSDVRYSPSFQGHVTISADKSISTAYLQWNSLKASDTAMYYCARLPQYCSKGVCYRWFDPWGQGTLVTVSS
VL: EIVLTQSPSSVSASVGDRVTITCRASQGISSWLAWYQQKPGKAPKLLIYAASSLQSGVPSRFSGSGSGTDFTLTISSLQPEDFATYYCQQGHSFPYTFGQGTNLEIK
Broadly, the Kd is the constant that tells how readily two partners part at equilibrium. As usually defined, the koff is a measure of how fast the partners let go of each other. For orientation: kon means the second-order rate constant of association. In test [1], B1 showed a Kd of 12.3 nM, a koff of 0.037 s⁻¹ and an on-rate (kon) of 3e+06 M⁻¹ s⁻¹. Moreover, in test [2], the Kd was 0.9 nM, the dissociation rate constant (koff) was 0.00241 s⁻¹ and the kon came out at 2.61e+06 M⁻¹ s⁻¹. The same molecule gave an equilibrium dissociation constant (Kd) in test [3] of 0.925 nM.

B2: Reference Antibody (antibody, V domains shown)
VH: EVQLVESGAEVKKPGESLKISCKGSGYTFTRYWIGWVRQMPGKGLEWMGIIYPGDSDTRYSPSFQGHVTISADKSISTAYLQWNSLKASDTAMYYCARLPQYCSNGVCQRWFDPWGQGTLVTVSS
VL: EIVLTQSPSSVSASVGDRVTITCRASQGISSWLAWYQQKPGKAPKLLIYAASSLQSGVPSRFSGSGSGTDFTLTISSLQPEDFATYYCQQGNSFPYTFGQGTNLEIK
On to B2, for which the values for the AUC in test [4] and in test [5] were 16100 and 3.05e+06, respectively.

B3: AB-1 (antibody, V domains shown)
VH: EVQLVESGAEVKKPGESLKISCKGSGYTFTRYWIGWVRQMPGKGLEWMGIIYPGDSDVRYSPSFQGHVTISADKSISTAYLQWNSLKASDTAMYYCARLPQYCSKGVCYRWFDPWGQGTLVTVSS
VL: EIVLTQSPSSVSASVGDRVTITCRASQGISSWLAWYQQKPGKAPKLLIYAASSLQSGVPSRFSGSGSGTDFTLTISSLQPEDFATYYCQQGHSFPYTFGQGTNLEIK
On to B3, for which the AUC amounted to 9860 in test [4], 3.52e+06 in test [6] and 3.27e+06 in test [5].

B4: Reference Antibody Fab (Fab, V domains shown)
VH: EVQLVESGAEVKKPGESLKISCKGSGYTFTRYWIGWVRQMPGKGLEWMGIIYPGDSDTRYSPSFQGHVTISADKSISTAYLQWNSLKASDTAMYYCARLPQYCSNGVCQRWFDPWGQGTLVTVSS
VL: EIVLTQSPSSVSASVGDRVTITCRASQGISSWLAWYQQKPGKAPKLLIYAASSLQSGVPSRFSGSGSGTDFTLTISSLQPEDFATYYCQQGNSFPYTFGQGTNLEIK
As for B4, in test [2], the dissociation constant Kd was 5.4 nM, the off-rate (koff) stood at 0.00498 s⁻¹ and the kon is 929000 M⁻¹ s⁻¹. In test [3], the equilibrium dissociation constant (Kd) stood at 5.36 nM.
